Data reported in the supplement of paper PMC12764529.
± gives the half width of the 95% confidence interval.

experiment: folding stability dG unfold from trypsin proteolysis; higher = more stable
Outline: (§1)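 Only designs with AlphaFold2 dimer inter-PAE above 15 were retained; each was a mini-protein under 80 residues with no cysteine, in a PA-tagged cDNA display construct. After digestion with trypsin and chymotrypsin and sequencing, K50 was inferred by Bayesian fitting of counts, and unfolding free energy was derived per protease or combined against a sequence-predicted unfolded-state K50 and a shared folded-state K50.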

Row | Sequence | folding stability dG unfold [kcal/mol]
1 | SAGGGPPAKPVYLTVTVTTEDPVETAKKVEEEVKKLFPDAEILKVEVKKNPETNLYTVTVYVKKLVKSAGGS [r8_120_TrMRF] | 2.67 ± 0.075
2 | SAGGSAGGSAGTEIKIPPEFPDLPVKVYPIEVTLLGKGKPKKVILNVATTPDAIIAVDPESAGGSAGGSAGG [r11_21_TrMRF] | -0.478 ± 0.1
3 | SAGMEITVPGPFLSQEVFDLPDRPYLVLPTPEGIAVIDLVTGEAVFYPFGTTEPIVVPVPPGEELDLLSAGG [r19_138_TrMRF] | 1.73 ± 0.091
4 | SAGGSGKEFEVEKAVFIPLPDDRKLIIVKTKTSIQIVEYNGEEWKLVATYPYKDVPKNPRELLKKKSAGGSA [r2_133_TrMRF] | 0.454 ± 0.22
5 | SAGGMSFTMTVPPSNPNQVVGTNVPVSDVPPNYAYTLHFPNTGTTTTIPVSQAEEVKAQPHIDEITATSAGG [r19_302_JUSTAS] | 0.688 ± 0.03
6 | SAGGSAGGSKKKKKKVKKKKVYRVKIKTKDGKLIEIEVSVEDLEKIKKAAEKAGFEIVEIEPVSAGGSAGGS [r12_891_TrROS_Hall] | 2.39 ± 0.076
7 | SAGGSAGGSMKITKIEVEENEDGTLTVRLELEFVDPETKETYRVELEITVSKEELEKLLEALKSAGGSAGGS [r12_691_TrROS_Hall] | 3.03 ± 0.12
8 | SAGGSSEIVELKSIEKKGNSVILTLESKTNDYKVVVVIEGNKIRAYVFDKNGNIIAEFEFDGHPYLSAGGSA [r2_437_TrMRF] | 2.41 ± 0.11
9 | SAGGSAGGTISFPNATATITVEENSVTITVTNADGQPTTFTIPLPIPKAKPFTLPDGTKLYLIASAGGSAGG [r6_806_TrMRF] | 1.94 ± 0.083
10 | SAGGSLELPEGAKVEVEVEIEEVDDDTVKIKVKVKFTFINEDGEPETFEAEFEFEIPKEEAEELLGSAGGSA [r2_226_TrMRF] | 1.88 ± 0.17
11 | SAGGSAGGSWMYKKNPDGKLEPLPPIRPVPIKIPVPINGRWIPVPIWMTVADIDYIIKEFLKNSAGGSAGGS [r20_148_TrROS] | 1.48 ± 0.042
12 | SAGGMPPEELEAASLEERIARVRAAGLETATVRRPDGSTLTIDLGEEGPVTITTTTPPGETTTATLPSAGGS [r8_51_JUSTAS] | -1.04 ± 0.55
13 | SAGGSAGGSAFQIEDLKIEKVEFNPDGMVHNELEITLPGGKELEVSIMIDPKKPGKLMIMIVSAGGSAGGSA [r18_97_TrROS] | 1.98 ± 0.11
14 | SENWEPEPITFPDGITIWVMPDYGMIDIIDPDKGTFEMFMIRVDPNGKPEINPLTFKLDPPNGKIKDITPSA [r9_122_TrROS] | 0.657 ± 0.2
15 | SAGGMVLVEPSPDAVVRVIEREGDLARVTVYDPRSGARTVELVPIAPTGKGGVRLETLEVRVLPDAEASAGG [r13_556_JUSTAS] | -0.136 ± 0.035
16 | SAGGWTIREILEKNPNLREFAKEGWTIEIYYPNGKSGRVKIKEGSADDILDDINKNFPGPVEISITKSAGGS [r16_655_TrROS] | 0.659 ± 0.072

Row | Sequence | folding stability dG unfold [kcal/mol]
17 | SAGPTFEIVSVEEVDGKTYIRIRLPNGRIVTARITEVKRLGPDGKLYIKVEPGMSEEELKALLPPEVLKSAG [r5_462_TrROS_Hall] | 2.29 ± 0.053
18 | SAGGSAGGSAGGSAELLEVLEVTKTGSGYTVKVLERSPELGPSVRTESFPADDTSVLLLSAGGSAGGSAGGS [r4_253_JUSTAS] | -0.00295 ± 0.088
19 | SAGGKVKALIIPAPDEPGKPVYLKIIHPDGEIVYPLPNDITEEEAKAAAIELGEENGLDLDEIEIAESAGGS [r16_753_TrMRF] | 0.537 ± 0.032
20 | SAGMVVRITVLPEGEEREFVVAATPEEARELLEELGYEVEEFPELPVLVARRPDAVVLVEFIPVAPDALSAG [r5_248_TrMRF] | 1.59 ± 0.032
21 | SAGIKPGEKIEKVEIVKVEVKKNKDGSKTVTVTIKLKDGKTITIKPGETIEIKIENKKEGEKITLKVKSAGG [r19_199_TrROS_Hall] | 1.45 ± 0.13
22 | SSKIEASATIEGDVITVTLVADSLSDLLAAIKELAEKLGVSFEILSISYKRLPNGKIIATVTARVKPEDLSA [r9_102_TrMRF] | 3.24 ± 0.056
23 | SAGGSAGGSAGGMPGVTTTSTTTTTLPNGTVVTTTTTTVLLPTGTTVTVTVTTTTSATTSSAGGSAGGSAGG [r11_274_JUSTAS] | 2.77 ± 0.11
24 | SAGRIEIDKIEPGKPVRIKIKIEMPDPNGKKRKMDFTRRVRVDPENGMIYIPITMPNGRPIPIMINVKKSAG [r5_743_TrROS] | 0.313 ± 0.23
25 | SAGGMKVRIRIEVDGKTLELELEVEPGETVKITLEVNGEEVTITFDAATGEITIELPPGAKIVEIEPSAGGS [r16_761_TrROS_Hall] | 3.56 ± 0.23
26 | SAGGSAGGSAGKPVTLTDANGTPYSVSQVTTDPNSATVTATFTSPTSSTTHTATYPVTPASAGGSAGGSAGG [r11_290_JUSTAS] | 1.03 ± 0.046
27 | SAGGSAGGSAGGEKEEEEVTVTIYNKETDKVIEITVPKGVTEEEARKKAKELAEELEKKKSAGGSAGGSAGG [r7_957_TrROS_Hall] | 0.29 ± 0.032
28 | SAGGIKPDEPAIVLVKIPLPPGPNPEGGLEGPVLKTFPLEVGFPSLEELIEAVKELFPEGTEVEIIPSAGGS [r16_282_TrMRF] | 1.06 ± 0.042
29 | SAGGSMNPYSETITVNLPVPTPSGGSVVRPVTVPISIVYEDEKELEEALKKAKEEAEAAARKALGLESAGGS [r16_339_JUSTAS] | 1.37 ± 0.067
30 | SAGGSAGGSMTILEEEVVPETGLVRILVKLPNGELLELEVDPSVGVTPVKVDGKPIFDVTVDPSAGGSAGGS [r12_789_JUSTAS] | 0.898 ± 0.038
31 | SAGGSAGGSAGGKKIKIPKKVKVKVVKKKDGKLLVYLEKTGKVIELPVEDLKNITAEDLSAGGSAGGSAGGS [r10_709_TrROS_Hall] | 0.976 ± 0.038

experiment: folding stability dG unfold from chymotrypsin proteolysis; higher = more stable
Outline: as §1

Row | Sequence | folding stability dG unfold [kcal/mol]
32 | SAGGGPPAKPVYLTVTVTTEDPVETAKKVEEEVKKLFPDAEILKVEVKKNPETNLYTVTVYVKKLVKSAGGS [r8_120_TrMRF] | 4.58 ± 0.079
33 | SAGGSAGGSAGTEIKIPPEFPDLPVKVYPIEVTLLGKGKPKKVILNVATTPDAIIAVDPESAGGSAGGSAGG [r11_21_TrMRF] | -0.61 ± 0.28
34 | SAGMEITVPGPFLSQEVFDLPDRPYLVLPTPEGIAVIDLVTGEAVFYPFGTTEPIVVPVPPGEELDLLSAGG [r19_138_TrMRF] | 1.97 ± 0.042
35 | SAGGSGKEFEVEKAVFIPLPDDRKLIIVKTKTSIQIVEYNGEEWKLVATYPYKDVPKNPRELLKKKSAGGSA [r2_133_TrMRF] | 1.13 ± 0.14
36 | SAGGMSFTMTVPPSNPNQVVGTNVPVSDVPPNYAYTLHFPNTGTTTTIPVSQAEEVKAQPHIDEITATSAGG [r19_302_JUSTAS] | 0.0302 ± 0.085
37 | SAGGSAGGSKKKKKKVKKKKVYRVKIKTKDGKLIEIEVSVEDLEKIKKAAEKAGFEIVEIEPVSAGGSAGGS [r12_891_TrROS_Hall] | 3.86 ± 0.18
38 | SAGGSAGGSMKITKIEVEENEDGTLTVRLELEFVDPETKETYRVELEITVSKEELEKLLEALKSAGGSAGGS [r12_691_TrROS_Hall] | 4.09 ± 0.21
39 | SAGGSSEIVELKSIEKKGNSVILTLESKTNDYKVVVVIEGNKIRAYVFDKNGNIIAEFEFDGHPYLSAGGSA [r2_437_TrMRF] | 3.34 ± 0.046
40 | SAGGSAGGTISFPNATATITVEENSVTITVTNADGQPTTFTIPLPIPKAKPFTLPDGTKLYLIASAGGSAGG [r6_806_TrMRF] | 2.31 ± 0.16
41 | SAGGSLELPEGAKVEVEVEIEEVDDDTVKIKVKVKFTFINEDGEPETFEAEFEFEIPKEEAEELLGSAGGSA [r2_226_TrMRF] | 3.66 ± 0.11
42 | SAGGSAGGSWMYKKNPDGKLEPLPPIRPVPIKIPVPINGRWIPVPIWMTVADIDYIIKEFLKNSAGGSAGGS [r20_148_TrROS] | 0.785 ± 0.15
43 | SAGGMPPEELEAASLEERIARVRAAGLETATVRRPDGSTLTIDLGEEGPVTITTTTPPGETTTATLPSAGGS [r8_51_JUSTAS] | 0.975 ± 0.042
44 | SAGGSAGGSAFQIEDLKIEKVEFNPDGMVHNELEITLPGGKELEVSIMIDPKKPGKLMIMIVSAGGSAGGSA [r18_97_TrROS] | 1.42 ± 0.049
45 | SENWEPEPITFPDGITIWVMPDYGMIDIIDPDKGTFEMFMIRVDPNGKPEINPLTFKLDPPNGKIKDITPSA [r9_122_TrROS] | 0.572 ± 0.91
46 | SAGGMVLVEPSPDAVVRVIEREGDLARVTVYDPRSGARTVELVPIAPTGKGGVRLETLEVRVLPDAEASAGG [r13_556_JUSTAS] | -0.0954 ± 0.048
